# From US20200024360A1 (Janssen / Centocor, published 2020)
# T1: Cynomolgous monkey PSMA, full length (Macaca fascicularis, UniProt Q04609 1-750 (human entry))
# T1 construct: On transfected HEK293F cells; also called cyno PSMA; EHH56646.1
# T1 chain: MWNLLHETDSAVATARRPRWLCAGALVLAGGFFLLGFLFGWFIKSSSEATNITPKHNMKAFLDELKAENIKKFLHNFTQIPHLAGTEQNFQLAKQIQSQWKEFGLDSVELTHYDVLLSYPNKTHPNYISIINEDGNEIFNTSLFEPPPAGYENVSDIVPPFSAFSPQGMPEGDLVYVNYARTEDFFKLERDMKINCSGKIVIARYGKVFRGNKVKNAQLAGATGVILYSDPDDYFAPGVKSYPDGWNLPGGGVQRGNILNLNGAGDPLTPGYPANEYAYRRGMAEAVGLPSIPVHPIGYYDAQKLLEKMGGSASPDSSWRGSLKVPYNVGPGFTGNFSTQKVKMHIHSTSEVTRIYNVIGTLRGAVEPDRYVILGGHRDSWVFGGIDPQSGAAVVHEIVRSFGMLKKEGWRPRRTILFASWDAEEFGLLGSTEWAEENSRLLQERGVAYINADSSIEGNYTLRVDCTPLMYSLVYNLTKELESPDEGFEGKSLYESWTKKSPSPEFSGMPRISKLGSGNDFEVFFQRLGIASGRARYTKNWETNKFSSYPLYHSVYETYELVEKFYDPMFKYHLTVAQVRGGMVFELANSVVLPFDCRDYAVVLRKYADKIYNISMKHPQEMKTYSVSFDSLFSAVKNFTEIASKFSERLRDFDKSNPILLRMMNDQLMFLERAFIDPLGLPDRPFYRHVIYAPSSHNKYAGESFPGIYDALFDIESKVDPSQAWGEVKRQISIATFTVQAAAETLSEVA
# T2: chimpanzee PSMA, full length (Pan troglodytes, UniProt Q04609 1-750 (human entry))
# T2 construct: On transfected HEK293F cells; also called chimp PSMA; H2Q3K5_PANTR
# T2 chain: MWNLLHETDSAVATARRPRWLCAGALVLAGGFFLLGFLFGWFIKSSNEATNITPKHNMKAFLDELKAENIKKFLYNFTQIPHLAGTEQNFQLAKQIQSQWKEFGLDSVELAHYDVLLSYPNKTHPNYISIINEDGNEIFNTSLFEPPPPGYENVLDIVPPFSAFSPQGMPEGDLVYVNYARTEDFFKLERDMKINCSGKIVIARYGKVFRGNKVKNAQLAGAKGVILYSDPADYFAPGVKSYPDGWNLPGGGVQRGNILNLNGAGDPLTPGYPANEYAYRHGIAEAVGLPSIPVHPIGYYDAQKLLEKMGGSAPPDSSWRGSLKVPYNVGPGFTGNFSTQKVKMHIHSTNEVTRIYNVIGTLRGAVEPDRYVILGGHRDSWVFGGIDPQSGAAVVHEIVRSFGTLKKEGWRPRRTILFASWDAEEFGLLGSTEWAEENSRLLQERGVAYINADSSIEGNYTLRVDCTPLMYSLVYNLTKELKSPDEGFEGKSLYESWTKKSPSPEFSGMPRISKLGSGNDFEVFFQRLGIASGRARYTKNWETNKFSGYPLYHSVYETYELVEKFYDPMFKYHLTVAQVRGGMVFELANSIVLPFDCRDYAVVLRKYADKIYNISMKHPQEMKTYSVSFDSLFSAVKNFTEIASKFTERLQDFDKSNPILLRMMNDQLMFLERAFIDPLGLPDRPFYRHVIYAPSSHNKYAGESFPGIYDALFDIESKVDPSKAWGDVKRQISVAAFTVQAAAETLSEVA
# What was measured:
# [1] = target: T1, Cynomolgous monkey PSMA, full length; test: FACS, whole cell binding, cyno PSMA HEK
# Experimental: (§1) PSMA×CD3 bispecific antibodies were tested for binding to PSMA positive cell lines LNCAP, human PSMA-HEK, Chimpanzee-PSMA-HEK and Cynomolgous monkey PSMA-HEK. To assess the binding capabilities of the PSMA bispecific antibodies, the cell-binding assay was utilized (described previously). Briefly, PSMA expressing tumor cells are bound by bispecific antibodies at known concentrations and the bound antibody is detected by an anti-human kappa light chain PE conjugated detection reagent (Invitrogen). The Mean Fluorescents Intensity (MFI) is the measure of bound bispecific antibody. The MFI is converted to a relative EC₅₀. EC₅₀ is a commonly used dose-response curve, where the half maximal effective concentration or the EC₅₀ point is defined as the inflection point of the curve. EC₅₀ s were determined by measuring cell bound bispecific and known concentrations. […] The dose response curves were then diluted down to that of background or no bispecific binding. The inflection point of this curve reflects the EC₅₀ point. The calculated EC₅₀ is determined by taking the ug/ml amount of bispecific antibody at the EC₅₀ point and converting it to a molarity value based on the MW of the bispecific antibody. Bispecific antibodies were normalized for protein concentration and then incubated with the same number of cells expressing either human or cyno PSMA. The MFI at each concentration was collected by flow cytometry and plotted as a function of concentration. Data was transformed via log 10 and then plotted. Nonlinear regression of binding curves was done to determine EC₅₀ s. These relative values were used for ranking PSMA binding to target cells.
# [2] = target: T3, human PSMA (prostate specific membrane antigen), full length (human, UniProt Q04609 1-750); test: FACS, whole cell binding, LNCaP; calculated EC50
# T3 construct: On LNCaP or C4-2B cells (endogenous) or transduced HEK293F cells; also called FOLH1_HUMAN; hPSMA
# Experimental: as §1
# [3] = target: T2, chimpanzee PSMA, full length; test: FACS, whole cell binding, chimp PSMA HEK; calculated EC50
# Experimental: as §1
binder,measurement,setting,value
"PS3B27 (bispecific antibody, human IgG4 S228P, kappa, lambda, F234A L235A, IgG4 PAA; PSMA arm chains first, then CD3 arm (F405L, R409K); also called PSMB127 x CD3B219; PS2B27) heavy 1: not shown light 1: not shown heavy 2: EVQLVESGGGLVQPGGSLRLSCAASGFTFNTYAMNWVRQAPGKGLEWVARIRSKYNNYATYYAASVKGRFTISRDDSKNSLYLQMNSLKTEDTAVYYCARHGNFGNSYVSWFAYWGQGTLVTVSSASTKGPSVFPLAPCSRSTSESTAALGCLVKDYFPEPVTVSWNSGALTSGVHTFPAVLQSSGLYSLSSVVTVPSSSLGTKTYTCNVDHKPSNTKVDKRVESKYGPPCPPCPAPEAAGGPSVFLFPPKPKDTLMISRTPEVTCVVVDVSQEDPEVQFNWYVDGVEVHNAKTKPREEQFNSTYRVVSVLTVLHQDWLNGKEYKCKVSNKGLPSSIEKTISKAKGQPREPQVYTLPPSQEEMTKNQVSLTCLVKGFYPSDIAVEWESNGQPENNYKTTPPVLDSDGSFLLYSKLTVDKSRWQEGNVFSCSVMHEALHNHYTQKSLSLSLGK light 2: QTVVTQEPSLTVSPGGTVTLTCRSSTGAVTTSNYANWVQQKPGQAPRGLIGGTNKRAPGTPARFSGSLLGGKAALTLSGVQPEDEAEYYCALWYSNLWVFGGGTKLTVLGQPKAAPSVTLFPPSSEELQANKATLVCLISDFYPGAVTVAWKADSSPVKAGVETTTPSKQSNNKYAASSYLSLTPEQWKSHRSYSCQVTHEGSTVEKTVAPTECS",EC50,[1],1.4 mg/L
same,EC50,[2],0.0146 µM
same,EC50,[3],0.0228 µM
"PS3B23 (bispecific antibody, human IgG4 S228P, kappa, lambda, F234A L235A, IgG4 PAA; PSMA arm chains first, then CD3 arm (F405L, R409K); also called PSMB123 x CD3B219) heavy 1: not shown light 1: not shown heavy 2: EVQLVESGGGLVQPGGSLRLSCAASGFTFNTYAMNWVRQAPGKGLEWVARIRSKYNNYATYYAASVKGRFTISRDDSKNSLYLQMNSLKTEDTAVYYCARHGNFGNSYVSWFAYWGQGTLVTVSSASTKGPSVFPLAPCSRSTSESTAALGCLVKDYFPEPVTVSWNSGALTSGVHTFPAVLQSSGLYSLSSVVTVPSSSLGTKTYTCNVDHKPSNTKVDKRVESKYGPPCPPCPAPEAAGGPSVFLFPPKPKDTLMISRTPEVTCVVVDVSQEDPEVQFNWYVDGVEVHNAKTKPREEQFNSTYRVVSVLTVLHQDWLNGKEYKCKVSNKGLPSSIEKTISKAKGQPREPQVYTLPPSQEEMTKNQVSLTCLVKGFYPSDIAVEWESNGQPENNYKTTPPVLDSDGSFLLYSKLTVDKSRWQEGNVFSCSVMHEALHNHYTQKSLSLSLGK light 2: QTVVTQEPSLTVSPGGTVTLTCRSSTGAVTTSNYANWVQQKPGQAPRGLIGGTNKRAPGTPARFSGSLLGGKAALTLSGVQPEDEAEYYCALWYSNLWVFGGGTKLTVLGQPKAAPSVTLFPPSSEELQANKATLVCLISDFYPGAVTVAWKADSSPVKAGVETTTPSKQSNNKYAASSYLSLTPEQWKSHRSYSCQVTHEGSTVEKTVAPTECS",EC50,[1],3.74 mg/L
same,EC50,[3],0.00618 µM
"PS3B19 (bispecific antibody, human IgG4 S228P, kappa, lambda, F234A L235A, IgG4 PAA; PSMA arm chains first, then CD3 arm (F405L, R409K); also called PSMB119 x CD3B219) heavy 1: not shown light 1: not shown heavy 2: EVQLVESGGGLVQPGGSLRLSCAASGFTFNTYAMNWVRQAPGKGLEWVARIRSKYNNYATYYAASVKGRFTISRDDSKNSLYLQMNSLKTEDTAVYYCARHGNFGNSYVSWFAYWGQGTLVTVSSASTKGPSVFPLAPCSRSTSESTAALGCLVKDYFPEPVTVSWNSGALTSGVHTFPAVLQSSGLYSLSSVVTVPSSSLGTKTYTCNVDHKPSNTKVDKRVESKYGPPCPPCPAPEAAGGPSVFLFPPKPKDTLMISRTPEVTCVVVDVSQEDPEVQFNWYVDGVEVHNAKTKPREEQFNSTYRVVSVLTVLHQDWLNGKEYKCKVSNKGLPSSIEKTISKAKGQPREPQVYTLPPSQEEMTKNQVSLTCLVKGFYPSDIAVEWESNGQPENNYKTTPPVLDSDGSFLLYSKLTVDKSRWQEGNVFSCSVMHEALHNHYTQKSLSLSLGK light 2: QTVVTQEPSLTVSPGGTVTLTCRSSTGAVTTSNYANWVQQKPGQAPRGLIGGTNKRAPGTPARFSGSLLGGKAALTLSGVQPEDEAEYYCALWYSNLWVFGGGTKLTVLGQPKAAPSVTLFPPSSEELQANKATLVCLISDFYPGAVTVAWKADSSPVKAGVETTTPSKQSNNKYAASSYLSLTPEQWKSHRSYSCQVTHEGSTVEKTVAPTECS",EC50,[1],1.76 mg/L
same,EC50,[3],0.0359 µM
"PS3B24 (bispecific antibody, human IgG4 S228P, kappa, lambda, F234A L235A, IgG4 PAA; PSMA arm chains first, then CD3 arm (F405L, R409K); also called PSMB124 x CD3B219) heavy 1: not shown light 1: not shown heavy 2: EVQLVESGGGLVQPGGSLRLSCAASGFTFNTYAMNWVRQAPGKGLEWVARIRSKYNNYATYYAASVKGRFTISRDDSKNSLYLQMNSLKTEDTAVYYCARHGNFGNSYVSWFAYWGQGTLVTVSSASTKGPSVFPLAPCSRSTSESTAALGCLVKDYFPEPVTVSWNSGALTSGVHTFPAVLQSSGLYSLSSVVTVPSSSLGTKTYTCNVDHKPSNTKVDKRVESKYGPPCPPCPAPEAAGGPSVFLFPPKPKDTLMISRTPEVTCVVVDVSQEDPEVQFNWYVDGVEVHNAKTKPREEQFNSTYRVVSVLTVLHQDWLNGKEYKCKVSNKGLPSSIEKTISKAKGQPREPQVYTLPPSQEEMTKNQVSLTCLVKGFYPSDIAVEWESNGQPENNYKTTPPVLDSDGSFLLYSKLTVDKSRWQEGNVFSCSVMHEALHNHYTQKSLSLSLGK light 2: QTVVTQEPSLTVSPGGTVTLTCRSSTGAVTTSNYANWVQQKPGQAPRGLIGGTNKRAPGTPARFSGSLLGGKAALTLSGVQPEDEAEYYCALWYSNLWVFGGGTKLTVLGQPKAAPSVTLFPPSSEELQANKATLVCLISDFYPGAVTVAWKADSSPVKAGVETTTPSKQSNNKYAASSYLSLTPEQWKSHRSYSCQVTHEGSTVEKTVAPTECS",EC50,[1],18.2 mg/L
same,EC50,[3],0.00775 µM
"PS3B22 (bispecific antibody, human IgG4 S228P, kappa, lambda, F234A L235A, IgG4 PAA; PSMA arm chains first, then CD3 arm (F405L, R409K); also called PSMB122 x CD3B219; PSB22) heavy 1: not shown light 1: DIQMTQSPSSLSASVGDRVTITCRASQSIDRWLNWYQQKPGKAPKLLIYAASSLQSGVPSRFSGSGSGTDFTLTISSLQPEDFATYYCQQSPRYPLTFGQGTKVEIKRTVAAPSVFIFPPSDEQLKSGTASVVCLLNNFYPREAKVQWKVDNALQSGNSQESVTEQDSKDSTYSLSSTLTLSKADYEKHKVYACEVTHQGLSSPVTKSFNRGEC heavy 2: EVQLVESGGGLVQPGGSLRLSCAASGFTFNTYAMNWVRQAPGKGLEWVARIRSKYNNYATYYAASVKGRFTISRDDSKNSLYLQMNSLKTEDTAVYYCARHGNFGNSYVSWFAYWGQGTLVTVSSASTKGPSVFPLAPCSRSTSESTAALGCLVKDYFPEPVTVSWNSGALTSGVHTFPAVLQSSGLYSLSSVVTVPSSSLGTKTYTCNVDHKPSNTKVDKRVESKYGPPCPPCPAPEAAGGPSVFLFPPKPKDTLMISRTPEVTCVVVDVSQEDPEVQFNWYVDGVEVHNAKTKPREEQFNSTYRVVSVLTVLHQDWLNGKEYKCKVSNKGLPSSIEKTISKAKGQPREPQVYTLPPSQEEMTKNQVSLTCLVKGFYPSDIAVEWESNGQPENNYKTTPPVLDSDGSFLLYSKLTVDKSRWQEGNVFSCSVMHEALHNHYTQKSLSLSLGK light 2: QTVVTQEPSLTVSPGGTVTLTCRSSTGAVTTSNYANWVQQKPGQAPRGLIGGTNKRAPGTPARFSGSLLGGKAALTLSGVQPEDEAEYYCALWYSNLWVFGGGTKLTVLGQPKAAPSVTLFPPSSEELQANKATLVCLISDFYPGAVTVAWKADSSPVKAGVETTTPSKQSNNKYAASSYLSLTPEQWKSHRSYSCQVTHEGSTVEKTVAPTECS",EC50,[1],1.14 mg/L
same,EC50,[2],0.0183 µM
same,EC50,[3],0.0212 µM
